From the supplement of paper PMC10126150
± gives the standard deviation of the averaged measurements.

Test system: ATP
Assay: switch fluorescence ratio, 500 uM ATP over buffer (Cy3 cluster intensity, sum of 5 cycles each) (fold (ratio)); higher = stronger signal-on switching upon ATP binding; sequences stand for … in TCGTCGGCAGCGTCAGATGTGTATAAGAGACAGTTTTTTTTTTTTTTTTTTTTTTTTT…TC
Conditions: aptamer strand: ATP DNA aptamer (quencher-CACCTGGGGGAGTATTGCGGAGGAAGG + anchor), 100 nM annealed; ATP concentration: 500 uM
In short: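 Switching-strand clusters labelled with Cy3 on a modified Illumina MiSeq flow-cell were annealed to 100 nM quencher-labelled ATP aptamer, imaged in selection buffer, and re-imaged after 15 min with 500 uM ATP at 22 °C. This was done over five cycles with NaOH stripping and re-annealing in between. The fluorescence ratio is summed target-cycle over summed buffer-cycle Cy3 intensity per cluster, averaged per switch-domain sequence, excluding clusters outside 100-1000 RFU.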
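Note: ATP exposure 15 min at 22 °C before imaging.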

Sequence | switch fluorescence ratio
TTTATAAATG | 1.014 ± 0.0017
TTTATACGGT | 1.01 ± 0.005
TTTATAGAGT | 1.03 ± 0.029
TTTATAGGCG | 0.987 ± 0.023
TTTATAGGGA | 0.987 ± 0.015
TTTATAGGGC | 1.01 ± 0.021
TTTATAGGTG | 1.14 ± 0.089
TTTATATTAA | 1.03 ± 0.049
TTTATATTCT | 1.03 ± 0.074
TTTATATTTG | 1 ± 0.027
TTTATCAGCT | 0.9985 ± 0.0065
TTTATCGTTT | 1 ± 0.032
TTTATGGAAT | 0.998 ± 0.015
TTTATGGTCC | 1.02 ± 0.029
TTTATGGTTT | 1 ± 0.031
TTTATGTATT | 1 ± 0.022
TTTATGTGGA | 1.01 ± 0.027
TTTATTAGTT | 0.998 ± 0.025
TTTATTCAAG | 0.988 ± 0.021
TTTATTCGCG | 1.03 ± 0.029
TTTATTGCAT | 1.018 ± 0.0082
TTTATTTAAC | 1.052 ± 0.01
TTTATTTAGC | 1.02 ± 0.034

Sequence | switch fluorescence ratio
TTTATTTGAT | 0.9955 ± 0.0012
TTTATTTTCC | 1.05 ± 0.033
TTTCAAAAAT | 1.01 ± 0.044
TTTCAAATCT | 1.026 ± 0.0019
TTTCAAATGT | 1.11 ± 0.17
TTTCAAGGGG | 0.996 ± 0.011
TTTCAAGTAC | 1.49 ± 0.21
TTTCAATAAT | 0.988 ± 0.023
TTTCAATAGT | 1.09 ± 0.14
TTTCAATATT | 1.03 ± 0.031
TTTCAATCTG | 1.04 ± 0.038
TTTCAATGGT | 1 ± 0.045
TTTCACAAAG | 1 ± 0.018
TTTCACGCTC | 1.12 ± 0.21
TTTCACGGGA | 1.07 ± 0.066
TTTCACTATT | 1.01 ± 0.026
TTTCAGACAC | 1.02 ± 0.011
TTTCAGGTGT | 2.15 ± 0.98
TTTCAGTGAC | 1.04 ± 0.079
TTTCATAGTT | 0.954 ± 0.017
TTTCATATTT | 1.03 ± 0.014
TTTCATGGTA | 0.998 ± 0.0099
TTTCATTCGG | 1.06 ± 0.13

Sequence | switch fluorescence ratio
TTTCATTGGT | 1 ± 0.027
TTTCCAAACA | 1.01 ± 0.014
TTTCCAAGGT | 1.12 ± 0.11
TTTCCACGGG | 1.18 ± 0.025
TTTCCCGGCT | 1.04 ± 0.083
TTTCCCGTTT | 1.13 ± 0.095
TTTCCGTGAT | 1.918 ± 0.013
TTTCCTGACG | 1.06 ± 0.028
TTTCCTGGCT | 1.02 ± 0.032
TTTCCTTGAA | 0.974 ± 0.017
TTTCGAAGGT | 0.987 ± 0.019
TTTCGAATAT | 0.9836 ± 0.0061
TTTCGACGTC | 0.997 ± 0.12
TTTCGAGAGA | 1.02 ± 0.027
TTTCGAGTCA | 1 ± 0.03
TTTCGATTCT | 0.978 ± 0.029
TTTCGCCGTT | 1.003 ± 0.0055
TTTCGGAAAG | 0.967 ± 0.042
TTTCGGAACA | 1.001 ± 0.0066
TTTCGGAGAA | 0.962 ± 0.028
TTTCGGAGTG | 1.024 ± 0.0066
TTTCGGCGTT | 1.043 ± 0.0069
TTTCGGGTAC | 1.2 ± 0.22

Sequence | switch fluorescence ratio
TTTCGGGTGG | 0.979 ± 0.023
TTTCGGTGTG | 0.977 ± 0.0098
TTTCGTGCCT | 1.065 ± 0.0026
TTTCGTGGAG | 0.996 ± 0.02
TTTCGTGTGA | 1.015 ± 0.0062
TTTCGTTGCT | 0.994 ± 0.018
TTTCGTTGGT | 0.982 ± 0.016
TTTCTATGTA | 1.01 ± 0.024
TTTCTCGTAG | 0.991 ± 0.016
TTTCTCGTTG | 0.9908 ± 0.0074
TTTCTCTACG | 1.015 ± 0.0056
TTTCTGAGTT | 1.01 ± 0.032
TTTCTGCGGC | 1.046 ± 0.0017
TTTCTGGCAA | 1.32 ± 0.38
TTTCTGGCGA | 1.054 ± 0.01
TTTCTGGTCT | 1.03 ± 0.012
TTTCTGTATC | 1.04 ± 0.044
TTTCTGTTGT | 1.14 ± 0.16
TTTCTGTTTC | 1.04 ± 0.052
TTTCTGTTTT | 0.9913 ± 0.0088
TTTCTTATGT | 1.03 ± 0.024
TTTCTTCGCG | 1.027 ± 0.0032
TTTCTTGTTT | 0.985 ± 0.055

Sequence | switch fluorescence ratio
TTTGAAAACT | 0.995 ± 0.024
TTTGAACTTC | 1.27 ± 0.38
TTTGAAGAAC | 1.01 ± 0.056
TTTGAAGCAG | 1.08 ± 0.068
TTTGAAGTGG | 1.03 ± 0.03
TTTGAATTAA | 1.01 ± 0.049
TTTGAATTTG | 0.974 ± 0.023
TTTGACAAGC | 1.15 ± 0.18
TTTGACCCTA | 1.04 ± 0.019
TTTGACGGTT | 1.03 ± 0.015
TTTGACTGAG | 0.997 ± 0.023
TTTGAGAAAG | 0.992 ± 0.019
TTTGAGACGT | 1.02 ± 0.041
TTTGAGATTG | 0.99556 ± 0.00097
TTTGAGCTCT | 0.97 ± 0.014
TTTGAGCTGG | 0.996 ± 0.035
TTTGAGGGTC | 0.991 ± 0.037
TTTGAGGTTT | 1.01 ± 0.011
TTTGAGTAAA | 1.01 ± 0.019
TTTGAGTAAG | 1.02 ± 0.046
TTTGAGTTT | 0.981 ± 0.012
TTTGATAAAG | 1.03 ± 0.092
TTTGATACGG | 1 ± 0.028

Sequence | switch fluorescence ratio
TTTGATATAG | 0.994 ± 0.034
TTTGATCTTG | 1.01 ± 0.013
TTTGATGAGA | 1 ± 0.028
TTTGATGAGT | 1.01 ± 0.013
TTTGATGGGG | 0.988 ± 0.025
TTTGATGGTG | 1.04 ± 0.012
TTTGATTCAG | 1.04 ± 0.071
TTTGATTGCA | 1.03 ± 0.068
TTTGATTGCG | 1 ± 0.011
TTTGATTTTG | 0.989 ± 0.016
TTTGCAATTG | 1.13 ± 0.062
TTTGCACCAT | 1.03 ± 0.017
TTTGCAGAAC | 1.2 ± 0.15
TTTGCAGCGG | 1.02 ± 0.012
TTTGCCATTT | 1.02 ± 0.033
TTTGCCCAGA | 1.02 ± 0.041
TTTGCCCCTG | 1.03 ± 0.021
TTTGCCGAGT | 0.996 ± 0.044
TTTGCCGCCC | 1.145 ± 0.0012
TTTGCGACCT | 1.13 ± 0.066
TTTGCGATGG | 1.09 ± 0.011
TTTGCGGAGG | 1.27 ± 0.48
TTTGCGGGAT | 1.03 ± 0.014

Sequence | switch fluorescence ratio
TTTGCTACGG | 1.05 ± 0.013
TTTGCTAGAT | 1.047 ± 0.0097
TTTGCTATCA | 0.984 ± 0.013
TTTGCTGAAA | 0.964 ± 0.026
TTTGCTGGTA | 1.006 ± 0.0064
TTTGCTGGTC | 1.05 ± 0.025
TTTGCTTAGA | 1.04 ± 0.025
TTTGCTTGGG | 1.02 ± 0.033
TTTGGACATC | 1.02 ± 0.027
TTTGGACGCA | 1.12 ± 0.12
TTTGGACGGT | 1.015 ± 0.0099
TTTGGAGCAC | 1.6 ± 0.2
TTTGGAGGGG | 1.03 ± 0.039
TTTGGAGTGG | 0.998 ± 0.033
TTTGGATACG | 1.01 ± 0.011
TTTGGATGGG | 0.994 ± 0.012
TTTGGATTGT | 1.006 ± 0.0074
TTTGGATTTT | 1 ± 0.045
TTTGGCCCTT | 1.02 ± 0.027
